{
  "source": "paper PMC10020445",
  "about": "“Mechanism underlying delayed rectifying in human voltage-mediated activation Eag2 channel” (Nature Communications, 2023)",
  "molecular_target": "the molecule itself",
  "experiment": "cryo-EM structure; purified hEag2 in 20 mM Tris-HCl pH 8.0, 150 mM KCl, 1 mM MgCl2, 0.03% digitonin, about 5 mg/ml; six maps (closed 1, closed 2, pre-open 1, pre-open 2, open, pore dilation but non-conducting) refined with C4 symmetry imposed",
  "data": [
    {"protein": "human Eag2 (hEag2) voltage-gated potassium channel (natural protein, UniProt Q8NCM2 1-988, looked up, human Eag2 potassium channel (hEag2), UniProtKB Q8NCM2; gene placed before a PreScission protease site, followed by C-terminal EGFP and FLAG; the C-terminal GFP tag was removed with HRV 3C protease; the methods describe only one construct; FLAG stands after EGFP behind the protease site, so it leaves with the GFP tag; Residues with poor side-chain density were modelled as alanines in the …) MPGGKRGLVAPQNTFLENIVRRSSESSFLLGNAQIVDWPVVYSNDGFCKLSGYHRADVMQKSSTCSFMYGELTDKKTIEKVRQTFDNYESNCFEVLLYKKNRTPVWFYMQIAPIRNEHEKVVLFLCTFKDITLFKQPIEDDSTKGWTKFARLTRALTNSRSVLQQLTPMNKTEVVHKHSRLAEVLQLGSDILPQYKQEAPKTPPHIILHYCAFKTTWDWVILILTFYTAIMVPYNVSFKTKQNNIAWLVLDSVVDVIFLVDIVLNFHTTFVGPGGEVISDPKLIRMNYLKTWFVIDLLSCLPYDIINAFENVDEGISSLFSSLKVVRLLRLGRVARKLDHYLEYGAAVLVLLVCVFGLVAHWLACIWYSIGDYEVIDEVTNTIQIDSWLYQLALSIGTPYRYNTSAGIWEGGPSKDSLYVSSLYFTMTSLTTIGFGNIAPTTDVEKMFSVAMMMVGSLLYATIFGNVTTIFQQMYANTNRYHEMLNNVRDFLKLYQVPKGLSERVMDYIVSTWSMSKGIDTEKVLSICPKDMRADICVHLNRKVFNEHPAFRLASDGCLRALAVEFQTIHCAPGDLIYHAGESVDALCFVVSGSLEVIQDDEVVAILGKGDVFGDIFWKETTLAHACANVRALTYCDLHIIKREALLKVLDFYTAFANSFSRNLTLTCNLRKRIIFRKISDVKKEEEERLRQKNEVTLSIPVDHPVRKLFQKFKQQKELRNQGSTQGDPERNQLQVESRSLQNGASITGTSVVTVSQITPIQTSLAYVKTSESLKQNNRDAMELKPNGGADQKCLKVNSPIRMKNGNGKGWLRLKNNMGAHEEKKEDWNNVTKAESMGLLSEDPKSSDSENSVTKNPLRKTDSCDSGITKSDLRLDKAGEARSPLEHSPIQADAKHPFYPIPEQALQTTLQEVKHELKEDIQLLSCRMTALEKQVAEILKILSEKSVPQASSPKSQMPLQVPPQIPCQDIFSVSRPESPESDKDEIHF", "values": [
      {"measurement": "stoichiometry N", "result": 4}
    ]}
  ]
}
